From patent publication US20070299013

Tested on: pentapeptide DYDYQ (Asp695-Tyr696-Asp697-Tyr698-Gln699 of human factor Va heavy chain)

human thrombin
activation of factor V by thrombin (cleavage at Arg709), SDS-PAGE and immunoblot, thrombin preincubated with 100 µM peptide: the pentapeptide is a potent inhibitor of factor V activation by thrombin
